T1: EBV gp350 on EBV-eGFP virions (Epstein-Barr virus, UniProt P03200 1-907)
T1 sequence: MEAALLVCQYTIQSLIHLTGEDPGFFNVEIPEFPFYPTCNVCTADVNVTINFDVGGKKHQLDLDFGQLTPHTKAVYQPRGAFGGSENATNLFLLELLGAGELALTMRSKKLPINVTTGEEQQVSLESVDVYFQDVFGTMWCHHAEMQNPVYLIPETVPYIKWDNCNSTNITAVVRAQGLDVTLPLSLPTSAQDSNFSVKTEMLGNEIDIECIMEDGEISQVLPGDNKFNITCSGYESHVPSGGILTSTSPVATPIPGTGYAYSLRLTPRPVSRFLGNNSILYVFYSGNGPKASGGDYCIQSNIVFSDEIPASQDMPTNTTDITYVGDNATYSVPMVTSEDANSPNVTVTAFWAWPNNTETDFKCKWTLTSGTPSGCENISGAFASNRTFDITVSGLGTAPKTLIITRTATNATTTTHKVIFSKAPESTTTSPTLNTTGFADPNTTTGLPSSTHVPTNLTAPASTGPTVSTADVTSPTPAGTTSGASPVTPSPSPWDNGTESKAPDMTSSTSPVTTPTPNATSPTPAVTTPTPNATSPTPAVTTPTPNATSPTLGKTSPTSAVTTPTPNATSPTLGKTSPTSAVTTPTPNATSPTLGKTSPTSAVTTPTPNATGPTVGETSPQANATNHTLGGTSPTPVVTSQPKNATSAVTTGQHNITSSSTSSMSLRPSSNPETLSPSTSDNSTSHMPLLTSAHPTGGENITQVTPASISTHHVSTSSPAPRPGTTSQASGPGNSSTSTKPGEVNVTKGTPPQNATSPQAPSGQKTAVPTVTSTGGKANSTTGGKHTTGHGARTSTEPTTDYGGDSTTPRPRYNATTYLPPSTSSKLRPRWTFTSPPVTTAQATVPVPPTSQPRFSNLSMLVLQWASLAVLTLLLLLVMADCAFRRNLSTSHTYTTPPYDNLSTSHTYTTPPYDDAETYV

T2: EBV gp350 expressed on the surface of stably transfected CHO cells (Epstein-Barr virus, UniProt P03200 1-907)
T2 construct: also called native gp350; gp350 expressing CHO cells
T2 sequence: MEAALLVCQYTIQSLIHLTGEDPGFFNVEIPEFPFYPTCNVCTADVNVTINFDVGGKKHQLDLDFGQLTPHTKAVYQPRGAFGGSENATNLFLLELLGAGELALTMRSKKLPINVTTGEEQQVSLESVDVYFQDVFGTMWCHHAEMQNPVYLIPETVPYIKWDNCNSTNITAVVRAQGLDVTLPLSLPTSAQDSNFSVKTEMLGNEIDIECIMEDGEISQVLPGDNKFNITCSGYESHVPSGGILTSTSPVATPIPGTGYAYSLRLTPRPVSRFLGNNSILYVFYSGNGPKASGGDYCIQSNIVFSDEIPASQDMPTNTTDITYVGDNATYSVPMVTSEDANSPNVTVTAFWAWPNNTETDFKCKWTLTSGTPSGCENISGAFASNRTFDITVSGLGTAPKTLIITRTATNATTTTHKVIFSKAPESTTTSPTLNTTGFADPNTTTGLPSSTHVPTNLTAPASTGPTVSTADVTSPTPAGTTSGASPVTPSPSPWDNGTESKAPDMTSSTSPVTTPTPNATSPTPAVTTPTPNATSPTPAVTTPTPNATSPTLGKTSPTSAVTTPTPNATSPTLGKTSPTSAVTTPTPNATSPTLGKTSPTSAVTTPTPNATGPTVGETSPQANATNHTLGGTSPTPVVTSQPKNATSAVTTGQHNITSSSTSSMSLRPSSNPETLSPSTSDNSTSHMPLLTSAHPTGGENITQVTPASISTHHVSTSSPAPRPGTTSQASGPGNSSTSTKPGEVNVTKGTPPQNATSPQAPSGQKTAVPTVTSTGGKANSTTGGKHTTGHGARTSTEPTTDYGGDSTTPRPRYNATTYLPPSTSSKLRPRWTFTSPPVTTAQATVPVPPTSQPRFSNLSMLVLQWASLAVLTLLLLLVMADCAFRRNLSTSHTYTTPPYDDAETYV

B1: HB11 (antibody, V domains shown)
VH: PSLVKPSQTLSLTCSVTGDSITSGFWNWIRKFPGNKLEYMGYISYSGSTYYNPSLKSRISITRDTSKNQYYLQLNSVTTEDTATYYCARGNGGNYDWYFDVWGAGTTVTVSS
VL: AIMSASLGEKVTMSCRASSSVNFMNWYQQKSDDSPKLLIYYISNLAPGVPARFSGSGSGNSYSLTISGMEGEDAATYYCQQFTSSPSWTFGGGTKLEIKR
B2: HB1 (antibody, V domains shown)
VH: PGLVAPSQSLSITCTVSGFLLTTYGVHWVRQPPGKGLEWLGVIWAGGSTNYNSALMSRLSINKDISKSQVFLKMNSLQTDDTAMYYCTRDRGYGYLYAMDYWGQGTSVTVSS
VL: KFMSTSVGDRVSVTCKASQNVGTNVAWYQQKPGQSPKALIYSTSSRYTGVPDRFAGSGSGTDYTLTISNVQSEDLAEYFCQQYNTYPYTFGGGTRLDIKR
B3: HB17 (antibody, V domains shown)
VH: AELVIPGASVKVSCKASGYTFTSYWIHWVKQWPGQGLEWIGEINPNNGHTNYNEKFKSKATLTVDKSSSTAYMQLSSLTSEDSAVYYCARNLFYYSRPDYWGQGTSVTVSS
VL: SSLSASLGDRVTISCRASQDIGNYLNWYQQKPDGTIKLLIYYTSRLHSGVPSRFSGSGSGTDYSLTISNLEEEDIATYFCQQGNTLPPTFGGGTKLEIKR
B4: murine 72A1 (m72A1), anti-EBV gp350 neutralizing antibody from hybridoma HB168 (antibody, V domains shown)
VH: EVQLQQSGPELVKPGTSMKISCKASGSSFTDYTMNWMKQSHGKNLEWIGLINPYNGGTRYNQKFKGKATLTLDKSSSTAYMEVLSLTSEDSAVYYCAGGLRRVNWFAYWGQGTLVSVSA
VL: QAVLTQESALTTSPGETVTLTCRSSTGAVTTSNYANWVQEKPDHLFTGLIGGTNNRVPGVPARFSGSLIGDKAALTITGAQTEDEAIYFCVLWHSNHWVFGGGTKLTVL
notes: also called nAb-72A1; mouse 72A1
B5: HB5 (antibody, V domains shown)
VH: AELVRPGASVKISCKAFGYTFTNHNINWVKQRPGQGLDWIGYINPYNDYTSYNQKFKGKATLTVDKSSNTAYMELSSLTSEDSAVYYCARSEGWLRRGAWFAYWGQGTLVTVSA
VL: AILSVSPGERVSFSCRASQSIGTSIHWYQQRTNDSPRLLIKYASESISGIPPRFSGSGSGTDFTLSINSVESEDIADYHCQQSNSWPMLTFGAGTKLELKR
notes: also called mHB5

The first assay deals with T1, EBV gp350 on EBV-eGFP virions. Kind of assay: cell-based or functional assay.
As for B1, the “% neutralization of EBV-eGFP infection of Raji cells at 100 µg/ml” value was determined as 90%.

B2: the “% neutralization of EBV-eGFP infection of Raji cells at 100 µg/ml” value turned out to be 90%.

The target in another assay is T2, EBV gp350 expressed on the surface of …. As to the kind of experiment: cell competition (flow), unlabeled 125 µg/ml; competitor: biotinylated m72A1 1 µg/ml.
Regarding B3, the “% inhibition of biotinylated nAbs” value was 6%.

Consider B4, for which the “% inhibition of biotinylated nAbs” value was determined as 94%.

With B1, the “% inhibition of biotinylated nAbs” value came out at 89%.

For B5, the “% inhibition of biotinylated nAbs” value is 92%.

As for B2, the “% inhibition of biotinylated nAbs” value came out at 81%.

Another assay has the same target. As to the kind of experiment: cell competition (flow), unlabeled 250 µg/ml; competitor: biotinylated m72A1 1 µg/ml.
For B3, the “% inhibition of biotinylated nAbs” value worked out at 32%.

With B4, the “% inhibition of biotinylated nAbs” value worked out at 93%.

For the molecule B1, the “% inhibition of biotinylated nAbs” value amounted to 95%.

Turning to B5, the “% inhibition of biotinylated nAbs” value is 93%.

With B2, the “% inhibition of biotinylated nAbs” value was found to be 89%.

A further assay shares this target. Kind of assay: cell competition (flow), unlabeled 500 µg/ml; competitor: biotinylated m72A1 1 µg/ml.
B3: the “% inhibition of biotinylated nAbs” value worked out at 32%.

As to B4, the “% inhibition of biotinylated nAbs” value is 91%.

With B1, the “% inhibition of biotinylated nAbs” value was determined as 95%.

For the molecule B5, the “% inhibition of biotinylated nAbs” value worked out at 95%.

Take B2: the “% inhibition of biotinylated nAbs” value was found to be 91%.

A further assay has the same target. Kind of assay: cell competition (flow), unlabeled 67.5 µg/ml; competitor: biotinylated m72A1 1 µg/ml.
On to B3, for which the “% inhibition of biotinylated nAbs” value came out at 0%.

Regarding B4, the “% inhibition of biotinylated nAbs” value worked out at 97%.

As to B1, the “% inhibition of biotinylated nAbs” value stood at 87%.

In the case of B5, the “% inhibition of biotinylated nAbs” value was found to be 94%.

In the case of B2, the “% inhibition of biotinylated nAbs” value was 81%.

Another assay shares this target. Kind of assay: cross-competition on gp350-CHO cells (flow), unlabeled 500 µg/ml; competitor: biotinylated HB1.
Take B3: the “% inhibition of biotinylated nAbs” value was 23%.

With B4, the “% inhibition of biotinylated nAbs” value was determined as 82%.

Consider B1, for which the “% inhibition of biotinylated nAbs” value was 93%.

Regarding B5, the “% inhibition of biotinylated nAbs” value was determined as 92%.

As for B2, the “% inhibition of biotinylated nAbs” value turned out to be 92%.

For the next assay the target is unchanged. As to the kind of experiment: cross-competition on gp350-CHO cells (flow), unlabeled 500 µg/ml; competitor: biotinylated HB5.
B3: the “% inhibition of biotinylated nAbs” value was 32%.

On to B4, for which the “% inhibition of biotinylated nAbs” value is 97%.

Turning to B1, the “% inhibition of biotinylated nAbs” value stood at 96%.

With B5, the “% inhibition of biotinylated nAbs” value was 98%.

Regarding B2, the “% inhibition of biotinylated nAbs” value turned out to be 97%.

For another assay the target is unchanged. Kind of assay: cross-competition on gp350-CHO cells (flow), unlabeled 500 µg/ml; competitor: biotinylated 54A1.
For the molecule B3, the “% inhibition of biotinylated nAbs” value came out at 0%.

As for B4, the “% inhibition of biotinylated nAbs” value stood at 1%.

As to B1, the “% inhibition of biotinylated nAbs” value turned out to be 9%.

For the molecule B5, the “% inhibition of biotinylated nAbs” value amounted to 13%.

For the molecule B2, the “% inhibition of biotinylated nAbs” value was found to be 4%.

For a further assay the target is unchanged. As to the kind of experiment: cross-competition on gp350-CHO cells (flow), unlabeled 500 µg/ml; competitor: biotinylated HB11.
For B3, the “% inhibition of biotinylated nAbs” value was found to be 11%.

Take B4: the “% inhibition of biotinylated nAbs” value was found to be 90%.

Regarding B1, the “% inhibition of biotinylated nAbs” value is 96%.

As to B5, the “% inhibition of biotinylated nAbs” value is 93%.

As to B2, the “% inhibition of biotinylated nAbs” value came to 96%.

The target is the same in a further assay. Kind of assay: cross-competition on gp350-CHO cells (flow), unlabeled 500 µg/ml; competitor: biotinylated HB17.
On to B3, for which the “% inhibition of biotinylated nAbs” value was determined as 86%.

Consider B4, for which the “% inhibition of biotinylated nAbs” value is 37%.

For the molecule B1, the “% inhibition of biotinylated nAbs” value was 17%.

In the case of B5, the “% inhibition of biotinylated nAbs” value is 9%.

As to B2, the “% inhibition of biotinylated nAbs” value was found to be 16%.

For another assay the target is unchanged. As to the kind of experiment: cross-competition on gp350-CHO cells (flow), unlabeled 500 µg/ml; competitor: biotinylated HB20.
As for B3, the “% inhibition of biotinylated nAbs” value is 17%.

On to B4, for which the “% inhibition of biotinylated nAbs” value was found to be 31%.

As to B1, the “% inhibition of biotinylated nAbs” value is 3%.

Turning to B5, the “% inhibition of biotinylated nAbs” value was 73%.

Consider B2, for which the “% inhibition of biotinylated nAbs” value turned out to be 61%.

Another assay has the same target. As to the kind of experiment: cross-competition on gp350-CHO cells (flow), unlabeled 500 µg/ml; competitor: biotinylated h72A1.
Turning to B3, the “% inhibition of biotinylated nAbs” value was determined as 16%.

Turning to B4, the “% inhibition of biotinylated nAbs” value was determined as 98%.

Regarding B1, the “% inhibition of biotinylated nAbs” value worked out at 97%.

On to B5, for which the “% inhibition of biotinylated nAbs” value turned out to be 97%.

Take B2: the “% inhibition of biotinylated nAbs” value worked out at 95%.

The next assay has the same target. Kind of assay: cross-competition on gp350-CHO cells (flow), unlabeled 500 µg/ml; competitor: biotinylated m72A1.
In the case of B3, the “% inhibition of biotinylated nAbs” value was 24%.

Turning to B4, the “% inhibition of biotinylated nAbs” value is 98%.

Turning to B1, the “% inhibition of biotinylated nAbs” value worked out at 97%.

Regarding B5, the “% inhibition of biotinylated nAbs” value was 97%.

With B2, the “% inhibition of biotinylated nAbs” value stood at 98%.
